Test results reported in US7041288.
pKd: −log10 of the molar value.

Key:
[1] = biological target: human IgE (SUS-11 IgE) (human) (UniProt P01854); assay: SPR (BIAcore), IgE amine-coupled to CM5 chip, monophasic model
[2] = biological target: human IgE (SUS-11 IgE) (human) (UniProt P01854); assay: competition ELISA: SUS-11 IgE (1 µg/ml) pre-incubated with the antibody, captured on anti-IgE Le27; blocked ligand is HRP-labeled FcεRIα-HSA-FcεRIα (DFP); binding without competitor = 100 %

Sequence of UniProt P01854 (P01854 other isoform, or with tags, fused parts or gaps): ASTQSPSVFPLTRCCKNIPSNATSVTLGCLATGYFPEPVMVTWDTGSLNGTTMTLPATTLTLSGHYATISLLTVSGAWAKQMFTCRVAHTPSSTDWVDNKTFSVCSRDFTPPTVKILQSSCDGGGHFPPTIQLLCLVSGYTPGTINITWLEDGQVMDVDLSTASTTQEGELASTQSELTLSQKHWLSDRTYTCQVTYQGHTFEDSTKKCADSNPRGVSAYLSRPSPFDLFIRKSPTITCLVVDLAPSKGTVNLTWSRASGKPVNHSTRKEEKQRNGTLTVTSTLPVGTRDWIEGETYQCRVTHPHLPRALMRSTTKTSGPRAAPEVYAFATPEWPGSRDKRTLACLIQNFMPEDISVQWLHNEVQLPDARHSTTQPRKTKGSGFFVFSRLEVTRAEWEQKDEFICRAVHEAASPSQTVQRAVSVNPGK

Substance: BSW17, mouse monoclonal anti-human IgE antibody (hybridoma ECACC 96121916)
- pKd [1]: 9.28
- koff [1]: 4.2e-06 s⁻¹
- kon [1]: 8000 M⁻¹ s⁻¹
- IC50 (read off the curve) [2]: 0.4 µg/mL
